Reference: article PMC12207370, “Macrocyclic Peptide Probes for Immunomodulatory Protein CD59: Potent Modulators of Bacterial Toxin Activity and Antibody‐Dependent Cytotoxicity” (Angewandte Chemie (International Ed. in English), 2025)

Target: T1, biotinylated CD59 (Homo sapiens, UniProt P13987)
T1 construct: Recombinant soluble human CD59 with an additional C-terminal cysteine residue
T1 sequence (P13987 26-102 limits assumed): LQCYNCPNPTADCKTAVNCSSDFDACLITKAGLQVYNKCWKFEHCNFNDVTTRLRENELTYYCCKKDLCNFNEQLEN
Test: mRNA-display cyclic peptide screen against CD59-biotin, NGS abundance after 6th selection round
Settings: for Percentage Seq I: counts normalised by total counts of sample Seq I; for Percentage Seq I / Percentage Seq II: percentage of the pool; for Percentage Seq I / Percentage Seq II / Percentage Average / Percentage of the pool, averaged across the two sequencing samples / Percentage of the pool, Seq I / Percentage of the pool, Seq II: sheet R6; for Percentage Seq II: counts normalised by total counts of sample Seq II; for Percentage Average: percentage of the pool averaged across the two sequencing samples; for Counts Seq I / Counts Seq II: raw NGS counts of peptide sequence; for Counts Seq I: sequencing sample Seq I; for Counts Seq I / Counts Seq II / Counts (raw counts for peptide sequence), Seq I / Counts (raw counts for peptide sequence), Seq II: sheet R6 (6th selection round); for Counts Seq II: sequencing sample Seq II; for Counts (raw counts for peptide sequence), Seq I: NGS sample Seq I; for Counts (raw counts for peptide sequence), Seq II: NGS sample Seq II; for Percentage of the pool, averaged across the two sequencing samples: average of Seq I and Seq II; for Percentage of the pool, Seq I: counts normalised by total counts of NGS sample Seq I; for Percentage of the pool, Seq II: counts normalised by total counts of NGS sample Seq II
In short: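 Peptide–mRNA fusions were made by in vitro translation with a customised PURE express kit. The kit lacked release factor 1 and methionine and was supplemented with […] initiator tRNA carrying N-chloroacetyl-d-tyrosine. Thioether macrocycles were formed, then enriched and amplified over iterative rounds on CD59-biotin immobilised on streptavidin beads. NGS read counts per sequence were recorded after the 6th selection round.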

Substance: SAWGNRQVQYY
- Percentage Seq I: 0.110%
- Percentage Seq II: 0.116%
- Percentage Average: 0.113%
- Counts Seq I: 483
- Counts Seq II: 50

Substance: FIRGDSTSVLF
- Counts (raw counts for peptide sequence), Seq I: 54
- Counts (raw counts for peptide sequence), Seq II: 6
- Percentage of the pool, averaged across the two sequencing samples: 0.013%
- Percentage of the pool, Seq I: 0.012%
- Percentage of the pool, Seq II: 0.014%

Substance: FVRGDRYSVLG
- Percentage Seq I: 0.045%
- Percentage Seq II: 0.039%
- Percentage Average: 0.042%
- Counts Seq I: 198
- Counts Seq II: 17

Substance: CFSHRPGPSI
- Percentage Seq I: 0.147%
- Percentage Seq II: 0.132%
- Percentage Average: 0.140%
- Counts Seq I: 642
- Counts Seq II: 57

Substance: FVLGNRHTIVG
- Counts (raw counts for peptide sequence), Seq I: 57
- Counts (raw counts for peptide sequence), Seq II: 6
- Percentage of the pool, averaged across the two sequencing samples: 0.013%
- Percentage of the pool, Seq I: 0.013%
- Percentage of the pool, Seq II: 0.014%

Substance: AVRGSSFYVWG
- Percentage Seq I: 0.098%
- Percentage Seq II: 0.107%
- Percentage Average: 0.102%
- Counts Seq I: 427
- Counts Seq II: 46

Substance: TLSTNRDLIRLPAAAAAAARTGGG
- Counts (raw counts for peptide sequence), Seq I: 63
- Counts (raw counts for peptide sequence), Seq II: 7
- Percentage of the pool, averaged across the two sequencing samples: 0.015%
- Percentage of the pool, Seq I: 0.014%
- Percentage of the pool, Seq II: 0.016%

Substance: SWTWGNRSSARG
- Percentage Seq I: 0.025%
- Percentage Seq II: 0.035%
- Percentage Average: 0.030%
- Counts Seq I: 110
- Counts Seq II: 15

Substance: ISYGDRSYTYY
- Percentage Seq I: 0.106%
- Percentage Seq II: 0.121%
- Percentage Average: 0.113%
- Counts Seq I: 463
- Counts Seq II: 52

Substance: FVTGNRDHARG
- Percentage Seq I: 0.029%
- Percentage Seq II: 0.035%
- Percentage Average: 0.032%
- Counts Seq I: 126
- Counts Seq II: 15

Substance: WIRGNRDESLG
- Counts (raw counts for peptide sequence), Seq I: 46
- Counts (raw counts for peptide sequence), Seq II: 7
- Percentage of the pool, averaged across the two sequencing samples: 0.013%
- Percentage of the pool, Seq I: 0.011%
- Percentage of the pool, Seq II: 0.016%

Substance: FVRGDLYSVIG
- Counts (raw counts for peptide sequence), Seq I: 54
- Counts (raw counts for peptide sequence), Seq II: 6
- Percentage of the pool, averaged across the two sequencing samples: 0.013%
- Percentage of the pool, Seq I: 0.012%
- Percentage of the pool, Seq II: 0.014%

Substance: LAWGNRQIQYY
- Counts (raw counts for peptide sequence), Seq I: 78
- Counts (raw counts for peptide sequence), Seq II: 6
- Percentage of the pool, averaged across the two sequencing samples: 0.016%
- Percentage of the pool, Seq I: 0.018%
- Percentage of the pool, Seq II: 0.014%

Substance: YVFWSRTHTYG
- Percentage Seq I: 0.172%
- Percentage Seq II: 0.165%
- Percentage Average: 0.168%
- Counts Seq I: 751
- Counts Seq II: 71

Substance: HVFGNRSFTSG
- Percentage Seq I: 0.017%
- Percentage Seq II: 0.021%
- Percentage Average: 0.019%
- Counts Seq I: 73
- Counts Seq II: 9

Substance: SKNGLTFLCN
- Percentage Seq I: 0.181%
- Percentage Seq II: 0.211%
- Percentage Average: 0.196%
- Counts Seq I: 794
- Counts Seq II: 91

Substance: RYGGRTFIYAWS
- Percentage Seq I: 0.025%
- Percentage Seq II: 0.026%
- Percentage Average: 0.025%
- Counts Seq I: 111
- Counts Seq II: 11

Substance: FARGDRNHQFY
- Counts (raw counts for peptide sequence), Seq I: 63
- Counts (raw counts for peptide sequence), Seq II: 5
- Percentage of the pool, averaged across the two sequencing samples: 0.013%
- Percentage of the pool, Seq I: 0.014%
- Percentage of the pool, Seq II: 0.012%

Substance: CFVNRLRSAESR
- Percentage Seq I: 0.141%
- Percentage Seq II: 0.144%
- Percentage Average: 0.143%
- Counts Seq I: 618
- Counts Seq II: 62

Substance: LWGTHSYVYYRP
- Counts (raw counts for peptide sequence), Seq I: 46
- Counts (raw counts for peptide sequence), Seq II: 7
- Percentage of the pool, averaged across the two sequencing samples: 0.013%
- Percentage of the pool, Seq I: 0.011%
- Percentage of the pool, Seq II: 0.016%

Substance: IASGSLHFVFY
- Percentage Seq I: 0.027%
- Percentage Seq II: 0.032%
- Percentage Average: 0.030%
- Counts Seq I: 119
- Counts Seq II: 14

Substance: AVAGSRHWAWG
- Percentage Seq I: 0.039%
- Percentage Seq II: 0.039%
- Percentage Average: 0.039%
- Counts Seq I: 171
- Counts Seq II: 17

Substance: SAWGNRQIQY+
- Percentage Seq I: 0.026%
- Percentage Seq II: 0.016%
- Percentage Average: 0.021%
- Counts Seq I: 114
- Counts Seq II: 7

Substance: HVFGSRSFTRG
- Percentage Seq I: 0.074%
- Percentage Seq II: 0.084%
- Percentage Average: 0.079%
- Counts Seq I: 323
- Counts Seq II: 36

Substance: DYNRIVWGRGNAAAAAAARTGGG
- Counts (raw counts for peptide sequence), Seq I: 89
- Counts (raw counts for peptide sequence), Seq II: 6
- Percentage of the pool, averaged across the two sequencing samples: 0.017%
- Percentage of the pool, Seq I: 0.020%
- Percentage of the pool, Seq II: 0.014%

Substance: GYLNECHTLYTQ
- Percentage Seq I: 0.034%
- Percentage Seq II: 0.051%
- Percentage Average: 0.043%
- Counts Seq I: 149
- Counts Seq II: 22

Substance: TISGGRDYTRG
- Percentage Seq I: 0.948%
- Percentage Seq II: 0.935%
- Percentage Average: 0.941%
- Counts Seq I: 4146
- Counts Seq II: 403

Substance: FVTGDRDHTRG
- Percentage Seq I: 0.127%
- Percentage Seq II: 0.121%
- Percentage Average: 0.124%
- Counts Seq I: 554
- Counts Seq II: 52

Substance: CFSARAIHGSL
- Counts (raw counts for peptide sequence), Seq I: 38
- Counts (raw counts for peptide sequence), Seq II: 6
- Percentage of the pool, averaged across the two sequencing samples: 0.011%
- Percentage of the pool, Seq I: 0.009%
- Percentage of the pool, Seq II: 0.014%

Substance: FVSGNSRFRRE
- Percentage Seq I: 0.062%
- Percentage Seq II: 0.070%
- Percentage Average: 0.066%
- Counts Seq I: 270
- Counts Seq II: 30

Substance: SAWGNRQIKYY
- Counts (raw counts for peptide sequence), Seq I: 65
- Counts (raw counts for peptide sequence), Seq II: 6
- Percentage of the pool, averaged across the two sequencing samples: 0.014%
- Percentage of the pool, Seq I: 0.015%
- Percentage of the pool, Seq II: 0.014%

Substance: DPWCTPFSNVT
- Percentage Seq I: 0.186%
- Percentage Seq II: 0.209%
- Percentage Average: 0.198%
- Counts Seq I: 815
- Counts Seq II: 90

Substance: FIRGNSTSVLFAAAAAAARTGGG
- Counts (raw counts for peptide sequence), Seq I: 40
- Counts (raw counts for peptide sequence), Seq II: 7
- Percentage of the pool, averaged across the two sequencing samples: 0.013%
- Percentage of the pool, Seq I: 0.009%
- Percentage of the pool, Seq II: 0.016%

Substance: IIRGNRLTKYE
- Percentage Seq I: 0.020%
- Percentage Seq II: 0.026%
- Percentage Average: 0.023%
- Counts Seq I: 86
- Counts Seq II: 11

Substance: YVFGNRSFTRG
- Percentage Seq I: 0.504%
- Percentage Seq II: 0.524%
- Percentage Average: 0.514%
- Counts Seq I: 2205
- Counts Seq II: 226
